Results published in PMC10776578, “Epstein-Barr virus-driven B cell lymphoma mediated by a direct LMP1-TRAF6 complex” (Nature Communications, 2024).
Substitutions are numbered along the chain they refer to. Numbers in names are those of the source. Entries after “also recorded” stand apart in the source; their conditions may differ.

B1: R392A (protein, UniProt Q9Y4K3 1-522, looked up, variant R392A)
TNF receptor-associated …: MSLLNCENSCGSSQSESDCCVAMASSCSAVTKDDSVGGTASTGNLSSSFMEEIQGYDVEFDPPLESKYECPICLMALREAVQTPCGHRFCKACIIKSIRDAGHKCPVDNEILLENQLFPDNFAKREILSLMVKCPNEGCLHKMELRHLEDHQAHCEFALMDCPQCQRPFQKFHINIHILKDCPRRQVSCDNCAASMAFEDKEIHDQNCPLANVICEYCNTILIREQMPNHYDLDCPTAPIPCTFSTFGCHEKMQRNHLARHLQENTQSHMRMLAQAVHSLSVIPDSGYISEVRNFQETIHQLEGRLVRQDHQIRELTAKMETQSMYVSELKRTIRTLEDKVAEIEAQQCNGIYIWKIGNFGMHLKCQEEEKPVVIHSPGFYTGKPGYKLCMALHLQLPTAQRCANYISLFVHTMQGEYDSHLPWPFQGTIRLTILDQSEAPVRQNHEEIMDAKPELLAFQRPTIPRNPKGFGYVTFMHLEALRQRTFIKDDTLLVRCEVSTRFDMGSLRREGFQPRSTDAGV
B2: Y473A (protein, UniProt Q9Y4K3 1-522, looked up, variant Y473A)
TNF receptor-associated …: B1 TNF receptor-associated … with A392R, Y473A
B3: F471A (protein, UniProt Q9Y4K3 1-522, looked up, variant F471A)
TNF receptor-associated …: B1 TNF receptor-associated … with A392R, F471A

Assays:
NF-κB in TRAF6^-/- MEFs = test: NF-κB reporter assay, TRAF6 rescue of CTAR2 signalling; assay type: cell-based, mouse; design: unit not given here
Experimental: TRAF6^−/− cells (6 × 10^4) were seeded per well of a 6-well plate in DMEM full medium the day before transfection. Cells were transfected with 2 µg of the indicated pCMV-HA-LMP1 plasmids together with 0.5 µg of pRK5-Flag-TRAF6 plasmids or empty vector, 0.05 µg of NF-κB luciferase reporter 3xκB-Luc and 0.2 µg of pPGK-Renilla housekeeping control reporter using the PolyFect transfection reagent (Qiagen)[33]. After 4 h the transfection mix was removed, and the cells were kept overnight in DMEM full medium. NF-κB reporter and Renilla control activities were measured with the Dual-Luciferase reporter assay kit (Promega, #E1910) following the manufacturer’s instructions. Samples of each lysate were analyzed for LMP1 and TRAF6 expression by immunoblotting.

HA-LMP1 = test: Coimmunoprecipitation of HA-LMP1 with Flag-TRAF6 mutants in HEK293 cells; assay type: cell-based, Epstein-Barr virus; settings: for coprecipitated HA-LMP1 signal (densitometry), mean: HEK293, mean of n = 3; for interaction of TRAF6 mutants with LMP1 in HEK293 cells (in words): coimmunoprecipitation
Experimental: (§1) Immunoblotting was essentially performed as described. Proteins were detected on nitrocellulose membranes (Bio-Rad, #1620115) using the following primary antibodies: α−6*His-tag (clone 4A4 or 2F12, source: antibody facility of the Helmholtz Center Munich, hybridoma supernatants were used at a 1:10 dilution)[75], α-TRAF6 (H-274, Santa Cruz Biotech., #sc-7221, used at 1:1000), α-HA-tag (12CA5, Sigma-Aldrich, #11583816001, used at 0.4 µg per mL), α-IκBα (C-21, Santa Cruz Biotech., #sc-371, used at 1:500) and α-Tubulin (B-5-1-2, Santa Cruz Biotech., #sc-23948, used at 1:500). Horseradish peroxidase-coupled antibodies were used as secondary antibodies (Cell Signalling Technology, #7074 or #7076, respectively, both used at 1:5000). ECL signals were captured on X-ray films (Agfa Healthcare) and quantified by densitometry using the ImageJ software. Uncropped scans of immunoblots indicating molecular weights are provided in Supplementary Fig. 6.
HEK293 cells were transfected with 1 µg of pRK5-Flag TRAF6 plasmids, 1 µg of pCMV-HA-LMP1 and 6 µg of pRK5 per 10 cm cell culture dish using PolyFect Transfection Reagent (Qiagen, #301107) in RPMI without supplements. Cells were incubated with the plasmid transfection mix for 4 h before the medium was changed to RPMI full medium. After 24 h, the cells were lysed in NP40-lysis buffer (50 mM HEPES pH 7.5, 150 mM NaCl, 5 mM EDTA, 0.5 mM sodium orthovanadate, 0.5 mM PMSF, 0.5 mM sodium molybdate, and cOmplete protease inhibitor cocktail). Lysates were cleared by centrifugation at 15000 x g for 10 min at 4 °C, and the protein concentration was adjusted to 1 mg per mL. For immunoprecipitation 4 mL of lysate was incubated with the α-Flag antibody 6F7 (Sigma-Aldrich, #F3165; covalently coupled to protein-G-Sepharose) for 1 h at 4 °C. The beads were pelleted at 15000 x g for 30 seconds at 4 °C, washed twice with NP40-lysis buffer, and analyzed by immunoblotting.

GST-RANK314-355 = test: AlphaScreen PPI, TRAF6 mutants binding to RANK; design: species or system human
[1] = test system: IκBα in TRAF6^-/- MEFs expressing NGFR-LMP1; test: IκBα degradation (canonical NF-κB) upon NGFR-LMP1 crosslinking; assay type: cell-based, mouse; settings: IκBα immunoblot
From the text: Wild-type MEFs and derivatives thereof, TRAF6^-/- MEFs[79], and HeLa cells (obtained from the German Collection of Microorganisms and Cell Cultures, GCMC) were kept in Dulbecco’s modified Eagle’s medium (DMEM, Thermo Fischer, #41966-029). The cell lines HEK293 (obtained from GCMC), HA-LCL3[31], LCL721[80], BL41[81], LCL.NGFR-LMP1[35], and the mouse lymphomas LMP1-CL 37 and 40 were kept in Roswell Park Memorial Institute medium (RPMI 1640, Thermo Fisher, #21875-034). If not indicated otherwise, DMEM and RMPI were supplemented with 10% of fetal bovine serum (FBS; Sigma, #F7524), 1 mM L-glutamine (Thermo Fisher, #25030-024) and antibiotics (50 U per mL penicilline and 50 µg per mL streptomycin). LCL.NGFR-LMP1 cells were additionally supplemented with 100 nM sodium selenite and crosslinking primary and secondary antibodies (see below). All cells were kept at 37 °C in the presence of 5% CO2. Retroviral transduction of MEFs with NGFR-LMP1 and TRAF6 was carried out with the vectors pSF91-NGFR-LMP1-IRES-GFP-WPRE and pSF91-Flag-TRAF6-IRES-CFP-WPRE expressing TRAF6 wild-type or the indicated TRAF6 mutants. For NGFR-LMP1 crosslinking, 1 µg per mL of α-NGFR primary antibody (clone HB8737, ATTC) was added for 1 h to the cells. signalling was activated by further addition of 10 µg per mL of α-mouse IgG/IgM secondary antibody (Dianova, #115-005-068) for the given time points.
as §1, with “Horseradish peroxidase-coupled antibodies were used as secondary antibodies (Cell Signalling Technology, #7074 or #7076, respectively, both used at 1:5000).” left out, “Uncropped scans of immunoblots indicating molecular weights are provided in Supplementary Fig. 6.” left out

[2] = with A204xAxA (CTAR2-specific signalling), replicate 1
[3] = with A204xAxA/∆371-386 (inactive null control), replicate 1
[4] = with A204xAxA/∆371-386, mean of n = 5
[5] = with A204xAxA/∆371-386, replicate 2
[6] = with A204xAxA/∆371-386, replicate 3
[7] = with A204xAxA/∆371-386, replicate 4
[8] = with A204xAxA/∆371-386, replicate 5

Molecule	NF-κB reporter activity (NF-κB in TRAF6^-/- MEFs; [2])	NF-κB reporter activity, mean (NF-κB in TRAF6^-/- MEFs; with A204xAxA, mean of n = 5)	NF-κB reporter activity (NF-κB in TRAF6^-/- MEFs; with A204xAxA, replicate 2)	NF-κB reporter activity (NF-κB in TRAF6^-/- MEFs; with A204xAxA, replicate 3)	NF-κB reporter activity (NF-κB in TRAF6^-/- MEFs; with A204xAxA, replicate 4)	NF-κB reporter activity (NF-κB in TRAF6^-/- MEFs; with A204xAxA, replicate 5)	NF-κB reporter activity (NF-κB in TRAF6^-/- MEFs; [3])	NF-κB reporter activity, mean (NF-κB in TRAF6^-/- MEFs; [4])	NF-κB reporter activity (NF-κB in TRAF6^-/- MEFs; [5])	NF-κB reporter activity (NF-κB in TRAF6^-/- MEFs; [6])	NF-κB reporter activity (NF-κB in TRAF6^-/- MEFs; [7])	NF-κB reporter activity (NF-κB in TRAF6^-/- MEFs; [8])	coprecipitated HA-LMP1 signal (densitometry), mean (HA-LMP1)	interaction of TRAF6 mutants with LMP1 in HEK293 cells (in words) (HA-LMP1)	effect of TRAF6 mutation on binding to RANK (in words) (GST-RANK314-355; listed as TRAF6 R392A)	rescue of canonical NF-κB activation by NGFR-LMP1 (in words) [1]	effect of TRAF6 mutation on binding to RANK (in words) (GST-RANK314-355; listed as Y471A)
B1	29.9	25.57	20.3	24.4	30.5	22.7	23.3	17.45	12.6	15.1	21.7	14.7	2761976	abolished the TRAF6 interaction with LMP1	do not interact	ineffective in rescuing canonical NF-κB activation	–
B2	17.9	16.74	12.1	18.2	20.7	14.7	21.7	17.54	12.1	17.7	21.8	14.3	5322536	abolished the TRAF6 interaction with LMP1	–	ineffective in rescuing canonical NF-κB activation	–
B3	22.4	20.18	16.8	19.1	26.3	16.3	22.3	19.11	23.1	15.5	21.1	13.4	5862061	abolished the TRAF6 interaction with LMP1	–	ineffective in rescuing canonical NF-κB activation	abolished the interaction of TRAF6 with RANK; also recorded: do not bind to RANK
